The text below walks through data of patent US20220221455A1 (GlaxoSmithKline, published 2022).

In the assay the target is T1, PE-PilA fusion protein LVL-735 (Haemophilus influenzae).
T1 construct: also called PE-PilA drug substance; PE-PilA DS
T1 chain: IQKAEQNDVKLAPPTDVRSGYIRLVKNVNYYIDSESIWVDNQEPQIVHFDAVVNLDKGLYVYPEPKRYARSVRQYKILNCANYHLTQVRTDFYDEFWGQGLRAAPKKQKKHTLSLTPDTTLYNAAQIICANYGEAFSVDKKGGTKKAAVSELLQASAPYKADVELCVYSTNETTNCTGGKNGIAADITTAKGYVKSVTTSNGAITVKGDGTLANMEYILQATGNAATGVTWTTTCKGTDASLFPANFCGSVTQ
Briefly: HDX-MS, antibody/antigen complex at molar ratio 1:1.

B1: PEPilA/3 mAb (antibody, V domains shown)
VH: QGQLQQSGPELVKPGASVKMSCKASGYTFTDYVISWVKQRIGQGLEWIGEIHPGSGSIHYNEKFKGKATLTADKSSNTAYMQLSSLTSEDSAVYFCARRGLRRPWFAYWGQGTLVTVSA
VL: DIVLTQSPASLAVSLGQRATISCRASKSVSTSGYSYMHWFQQKPGQPPKLLIYLASNLESGVPARFSGSGSGTDFTLNIHPVEEEDAATYYCQHSRELPLTFGAGTKLELK
notes: Mouse anti-PilA monoclonal antibody; The isotype appears only as 'optionally an IgG2A' in an embodiment; It was biotinylated when used as detection antibody in the sandwich ELISA; also called mAb PEPilA/3; PilA mAb
Turning to B1, the binding result is “binds”.
